In article PMC7878476:

Molecular target: DnaJB8ΔCTD (human)
Assay: cross-linking; HspA1A in 1× PBS pH 7.4 mixed with 40 μM DnaJB8, JD_(1–82), DnaJB8ΔCTD or DnaJB8F→S; 37 °C, ADH/DMTMM; XL–MS in triplicate

Sequence of human Hsp70 (HspA1A) (P0DMV8 whole entry): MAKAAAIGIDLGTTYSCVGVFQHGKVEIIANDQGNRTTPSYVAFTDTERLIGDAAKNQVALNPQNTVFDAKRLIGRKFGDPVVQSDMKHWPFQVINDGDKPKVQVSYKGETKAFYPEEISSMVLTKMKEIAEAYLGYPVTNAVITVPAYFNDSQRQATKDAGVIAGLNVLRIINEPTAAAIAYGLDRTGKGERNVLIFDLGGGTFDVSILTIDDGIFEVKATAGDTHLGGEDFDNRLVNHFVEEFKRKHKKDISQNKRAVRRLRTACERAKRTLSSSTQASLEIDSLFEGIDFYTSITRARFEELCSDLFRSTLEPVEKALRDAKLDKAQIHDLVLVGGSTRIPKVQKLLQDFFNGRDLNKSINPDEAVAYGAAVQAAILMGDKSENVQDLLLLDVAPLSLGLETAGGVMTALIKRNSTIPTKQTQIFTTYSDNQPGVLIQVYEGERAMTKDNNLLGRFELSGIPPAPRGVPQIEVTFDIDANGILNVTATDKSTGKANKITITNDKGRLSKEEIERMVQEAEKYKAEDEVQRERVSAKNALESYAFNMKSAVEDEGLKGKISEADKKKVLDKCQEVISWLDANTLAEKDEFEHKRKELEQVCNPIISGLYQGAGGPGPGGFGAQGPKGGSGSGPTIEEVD

- total cross-links between the JD and HspA1A across three XL–MS experiments: 14 cross-links
Substance: human Hsp70 (HspA1A) (from UniProt P0DMV8 1-641) (natural protein)
